Assay results published in patent publication US20170022269A1 (AbbVie / Abbott, published 2017).
Changes are numbered by the printed parent chain.

T1: Aβ(12-42) globulomer (human)
T1 construct: also called truncated Aβ(12-42) globulomer
T1 peptide: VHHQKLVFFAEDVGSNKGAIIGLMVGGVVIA

T2: Aβ(20-42) globulomer (human)
T2 construct: also called truncated Aβ(20-42) globulomer; Aβ(20-42) globular oligomer
T2 peptide: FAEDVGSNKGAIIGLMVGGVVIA

B1: monoclonal antibody 7C6 (antibody, V domains shown)
VH: EVKLVESGGGLVKPGGSLKLSCAASGFTFSSYAMSWVRQTPAKRLEWVASIHNRGTIFYLDSVKGRFTISRDNVRNTLYLQMSSLRSEDTAIYYCTRGRSNSYAMDYWGQGTSVTVSS
VL: DVLVTQSPLSLPVRLGDQASISCRSTQTLVHRNGDTYLEWYLQKPGQSPKSLIYKVSNRFSGVPDRFSGSGSGTDFTLKISRVEAEDLGVYYCFQGSHVPYTFGGGTKLEIKR
notes: Mouse monoclonal antibody from hybridoma; also called ML13-7C6.1D4.4A9.5G8; hybridoma ATCC PTA-7240
B2: monoclonal antibody 7E5 (antibody, V domains shown)
VH: EVKLVESGGGLVQPGGSRKLSCAASGFTFSDYEMVWVRQAPGEGLEWVAYISSGSRTIHYADTVKGRFTISRDNPKNTLFLQMSSLRSEDTAMYYCARTLLRLHFDYWGQGTILTVSS
VL: DIVMSQSPSSLAVSVGEKVTMSCRSSQSLFYRSNQKNFLAWYQQKPGQSPKLLIYWASTRESGVPDRFTGSGSGTDFTLTISSVKAEDLAVYYCQQYYSYPWTFGGGTKLEIKR
notes: Mouse monoclonal antibody from hybridoma; also called ML15-7E5.5E12; hybridoma ATCC PTA-7809
B3: monoclonal antibody 4B7 (antibody, V domains shown)
VH: B2 VH
VL: B2 VL
notes: Mouse monoclonal antibody from hybridoma; also called ML15-4B7.3A6; hybridoma ATCC PTA-7242
B4: monoclonal antibody 10C1 (antibody, V domains shown)
VH: B2 VH with E43K, S52N, R56G
VL: B2 VL with R24K, R32S, S33R, R60G, Y98F
notes: Mouse monoclonal antibody from hybridoma; also called ML15-10C1.5C6.3H4; hybridoma ATCC PTA-7810
B5: monoclonal antibody 5F7 (antibody, V domains shown)
VH: QVQLKQSGAELVRPGTSVKMSCKASGYTFTTFYIHWVKQRPGQGLEWIGMIGPGSGNTYYNEMFKDKATLTVDTSSSTAYMQLSSLTSEDSAVYFCARAKSARAAWFAYWGQGTLVTVSA
VL: DVLMTQTPLSLPVSLGDQASISCRSSQSVVQSNGNTYLEWYLQKPGQSPKLLIYKVSNRFSGVPDRFSGSGSGTDFTLKISRVEAEDLGVYYCFQGSHVPPTFGGGTKLEIKR
notes: Mouse monoclonal antibody from hybridoma, Protein A purified; also called mAb 5F7; ML15-5F7.5B10
B6: monoclonal antibody 2F2 (antibody, V domains shown)
VH: B5 VH
VL: B5 VL
notes: Mouse monoclonal antibody from hybridoma; also called ML15-2F2.3E12; hybridoma ATCC PTA-7408
B7: monoclonal antibody 4D10 (antibody, V domains shown)
VH: QVQLKQSGPSLIQPSQSLSITCTVSGFSLTSYGVHWVRQSPGKGLEWLGVIWRGGRIDYNAAFMSRLSITKDNSKSQVFFKMNSLQADDTAIYYCARNSDVWGTGTTVTVSS
VL: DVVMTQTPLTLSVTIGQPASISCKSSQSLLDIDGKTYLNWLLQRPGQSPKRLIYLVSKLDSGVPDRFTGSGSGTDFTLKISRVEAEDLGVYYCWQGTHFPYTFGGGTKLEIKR
notes: Mouse monoclonal antibody from hybridoma; also called ML13-4D10.3F3; hybridoma ATCC PTA-7405
B8: monoclonal antibody 6A2 (antibody, V domains shown)
VH: B5 VH with K5Q, K38R, A102H
VL: B5 VL with S61F, G71R
notes: Mouse monoclonal antibody from hybridoma; also called ML15-6A2.4B10; hybridoma ATCC PTA-7409
B9: monoclonal antibody 10F11 (antibody, V domains shown)
VH: QVQLQQSGPELVKPGASVKMSCKASGYTFTSYVMHWVKQRPGQGLEWIGYIYPYNDGTKYNEKFKGKATLTSDKSSSTVYMELSSLTSEDSTVYYCTVEGATWDGYFDVWGTGTTVTVSS
VL: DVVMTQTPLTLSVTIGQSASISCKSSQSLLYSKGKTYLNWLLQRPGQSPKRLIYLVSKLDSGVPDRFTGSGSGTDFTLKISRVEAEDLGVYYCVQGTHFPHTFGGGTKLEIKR
notes: Mouse monoclonal antibody from hybridoma; also called ML15-10F11.3D9; hybridoma ATCC PTA-7239

Molecular target: T1, Aβ(12-42) globulomer
Test: dot blot on nitrocellulose
Description: (§1) Dot blot procedure: [0556] 1) 1 μl each of the different Aβ-standards (in their 5 serial dilutions) were dotted onto the nitrocellulose membrane in a distance of approximately 1 cm from each other. [0557] 2) The Aβ-standards dots were allowed to dry on the nitrocellulose membrane on air for at least 10 min at room temperature (RT)(=dot blot) [0558] 3) Blocking: [0559] The dot blot was incubated with 30 ml 5% low fat milk in TBS for 1.5 h at RT. [0560] 4) Washing: [0561] The blocking solution was discarded and the dot blot was incubated under shaking with 20 ml TTBS for 10 min at RT. [0562] 5) Antibody solution I: [0563] The washing buffer was discarded and the dot blot was incubated with antibody solution I for 2 h at RT [0564] 6) Washing: [0565] The antibody solution I was discarded and the dot blot was incubated under shaking with 20 ml TTBS for 10 min at RT. The washing solution was discarded and the dot blot was incubated under shaking with 20 ml TTBS for 10 min at RT. The washing solution was discarded and the dot blot was incubated under shaking with 20 ml TBS for 10 min at RT. [0566] 7) Antibody solution II: [0567] The washing buffer was discarded and the dot blot was incubated with antibody solution II overnight at RT [0568] 8) Washing: [0569] The antibody solution II was discarded and the dot blot was incubated under shaking with 20 ml TTBS for 10 min at RT. The washing solution was discarded and the dot blot was incubated under shaking with 20 ml TTBS for 10 min at RT. The washing solution was discarded and the dot blot was incubated under shaking with 20 ml TBS for 10 min at RT. [0570] 9) Development: [0571] The washing solution was discarded. The dot blot was developed with 10 ml BM Blue POD Substrate for 10 min. The development was stopped by intense washing of the dot blot with H₂O. Quantitative evaluation was done using a densitometric analysis (GS800 densitometer (BioRad) and software package Quantity one, Version […] (BioRad)) of the dot-intensity. […] This threshold value was determined for every dot-blot independently. The calculated value indicates the relation between recognition of Aβ(20-42) globulomer and the respective Aβ form for the antibody given

binding result	Binder
no binding	B1
no binding	B2
no binding	B3
no binding	B4

molecular target: T3, Aβ(1-40) monomer (human); test: dot blot on nitrocellulose
T3 construct: also called monomeric Aβ(1-40); Aβ(1-40) monomer, 0.1% NH4OH
Description: as §1

T3 sequence (peptide, as listed by the source): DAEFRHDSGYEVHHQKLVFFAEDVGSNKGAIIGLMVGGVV

binding result	Binder
no binding	B1
no binding	B2
no binding	B3
no binding	B4
no binding	B5
no binding	B6
no binding	B7

molecular target: T4, sAPPα (Sigma) (UniProt P05067-4 18-612, limits assumed); test: dot blot on nitrocellulose
T4 construct: Bought protein; also called Sigma cat. no; S9564
Description: as §1

T4 sequence (P05067 other isoform, or with tags, fused parts or gaps limits assumed): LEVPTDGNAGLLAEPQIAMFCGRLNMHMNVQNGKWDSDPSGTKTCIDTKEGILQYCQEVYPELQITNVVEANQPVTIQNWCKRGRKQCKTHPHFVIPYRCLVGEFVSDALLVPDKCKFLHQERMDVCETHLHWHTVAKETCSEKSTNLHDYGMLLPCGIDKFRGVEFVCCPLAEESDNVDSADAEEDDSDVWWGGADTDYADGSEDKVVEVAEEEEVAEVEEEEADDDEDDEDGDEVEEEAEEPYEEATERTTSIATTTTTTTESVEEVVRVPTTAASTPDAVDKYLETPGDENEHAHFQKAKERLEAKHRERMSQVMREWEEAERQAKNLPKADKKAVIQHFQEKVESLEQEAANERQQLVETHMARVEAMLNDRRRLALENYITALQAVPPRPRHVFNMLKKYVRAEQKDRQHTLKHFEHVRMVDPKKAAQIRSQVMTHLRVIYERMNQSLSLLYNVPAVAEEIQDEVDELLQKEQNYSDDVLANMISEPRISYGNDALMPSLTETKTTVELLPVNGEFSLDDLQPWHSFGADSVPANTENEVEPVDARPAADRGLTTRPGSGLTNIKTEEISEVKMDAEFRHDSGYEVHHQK

Binder	binding result
B1	no binding (tested: antibody 0.2 µg/ml; first dot 1 pmol)
B2	no binding (tested: antibody 0.2 µg/ml; first dot 1 pmol)
B3	no binding (tested: antibody 0.2 µg/ml; first dot 1 pmol)
B4	no binding (tested: antibody 0.2 µg/ml; first dot 1 pmol)
B5	no binding (tested: antibody 0.2 µg/ml; first dot 1 pmol)
B6	no binding (tested: antibody 0.2 µg/ml; first dot 1 pmol)
B8	no binding (tested: antibody 0.2 µg/ml; first dot 1 pmol)
B9	no binding (tested: antibody 0.2 µg/ml; first dot 1 pmol)
B7	no binding (tested: antibody 0.2 µg/ml; first dot 1 pmol)

Molecular target: T1, Aβ(12-42) globulomer
Test: dot blot, antibody 0.2 µg/ml
Description: Dot blot procedure: [0556] 1) 1 μl each of the different Aβ-standards (in their 5 serial dilutions) were dotted onto the nitrocellulose membrane in a distance of approximately 1 cm from each other. [0557] 2) The Aβ-standards dots were allowed to dry on the nitrocellulose membrane on air for at least 10 min at room temperature (RT)(=dot blot) [0558] 3) Blocking: [0559] The dot blot was incubated with 30 ml 5% low fat milk in TBS for 1.5 h at RT. [0560] 4) Washing: [0561] The blocking solution was discarded and the dot blot was incubated under shaking with 20 ml TTBS for 10 min at RT. [0562] 5) Antibody solution I: [0563] The washing buffer was discarded and the dot blot was incubated with antibody solution I for 2 h at RT [0564] 6) Washing: [0565] The antibody solution I was discarded and the dot blot was incubated under shaking with 20 ml TTBS for 10 min at RT. The washing solution was discarded and the dot blot was incubated under shaking with 20 ml TTBS for 10 min at RT. […] Quantitative evaluation was done using a densitometric analysis (GS800 densitometer (BioRad) and software package Quantity one, Version […] (BioRad)) of the dot-intensity. […] This threshold value was determined for every dot-blot independently. The calculated value indicates the relation between recognition of Aβ(20-42) globulomer and the respective Aβ form for the antibody given

binding result	Binder
binds	B5
binds	B6

molecular target: T4, sAPPα (Sigma); test: dot blot densitometry, antibody 0.2 µg/ml; column sAPPα
Description: as §1

relation between recognition of Aβ(20-42) globulomer and the respective Aβ form	Binder
> 1000	B1
> 1000	B2
> 1000	B3
> 1000	B4
> 100	B5
> 100	B6
> 1000	B8
> 1000	B9
> 100	B7

Molecular target: T1, Aβ(12-42) globulomer
Test: dot blot densitometry, antibody 0.2 µg/ml; column Aβ(12-42) globulomer
Description: as §1

relation between recognition of Aβ(20-42) globulomer and the respective Aβ form	Binder
> 100000	B1
> 100000	B2
> 100000	B3
> 100000	B4
12	B9
29	B7

molecular target: T3, Aβ(1-40) monomer; test: dot blot densitometry, antibody 0.2 µg/ml; column Aβ(1-40) monomer, 0.1% NaOH
Description: as §1

relation between recognition of Aβ(20-42) globulomer and the respective Aβ form	Binder
> 100000	B1
> 100000	B2
> 100000	B3
> 100000	B4
> 10000	B6

molecular target: T3, Aβ(1-40) monomer; test: dot blot densitometry, antibody 0.2 µg/ml; column Aβ(1-40) monomer, 0.1% NH4OH
Description: as §1

relation between recognition of Aβ(20-42) globulomer and the respective Aβ form	Binder
> 100000	B1
> 100000	B2
> 100000	B4
> 10000	B5
> 10000	B6

Molecular target: T2, Aβ(20-42) globulomer
Test: dot blot densitometry, antibody 0.2 µg/ml; column Aβ(20-42) globulomer (reference)
Description: as §1

relation between recognition of Aβ(20-42) globulomer and the respective Aβ form	Binder
1	B1
1	B2
1	B3
1	B4
1	B5
1	B6
1	B9
1	B7
